Residue numbers refer to the chain shown, from its start.
B1: B7H6#24/CD3#1 (bispecific antibody, human IgG1, kappa, lambda, L234A L235A)
chain 1: DIQMTQSPSSLSASVGDRVTITCKASQNVGKYVAWYQQKPGKAPKSLIYSASNRYDAVPSRFSGSGSGTDFTLTISSLQPEDFTTYYCQQYISYPLTFGAGTKLEIKRTVAAPSVFIFPPSDEQLKSGTASVVCLLNNFYPREAKVQWKVDNALQSGNSQESVTEQDSKDSTYSLSSTLTLSKADYEKHKVYACEVTHQGLSSPVTKSFNRGECGGGGSEGKSSGSGSESKSTEGKSSGSGSESKSTGGGGSQVQLVQSGAEVKKPGASVKVSCKASGYTFTNYWMNWMRQAPGQGLEWMGGIYLSGDSTDYNEKFKGRVTMTVDTSTSTVYMELSSLRSEDTAVYYCTRRGDYFGDFWGQGTLVTVSSASTKGPSVFPLAPSSKSTSGGTAALGCLVKDYFPEPVTVSWNSGALTSGVHTFPAVLQSSGLYSLSSVVTVPSSSLGTQTYICNVNHKPSNTKVDKRVEPKSCDKTHTCPPCPAPEAAGGPSVFLFPPKPKDTLMISRTPEVTCVVVDVSHEDPEVKFNWYVDGVEVHNAKTKPREEQYNSTYRVVSVLTVLHQDWLNGKEYKCKVSNKALPAPIEKTISKAKGQPREPQVYTLPPSREEMTKNQVSLWCLVKGFYPSDIAVEWESNGQPENNYKTTPPVLDSDGSFFLYSKLTVDKSRWQQGNVFSCSVMHEALHNHYTQKSLSLSPG
chain 2: EAVVTQEPSLTVSPGGTVTLTCRSSTGAVTTSNYANWVQEKPGQLPRGLIGGTNKRAPWVPARFSGSLLGGKAALTLSGAQPEDEAEYFCALWYSNLWVFGGGTKLTVLGQPKAAPSVTLFPPSSEELQANKATLVCLISDFYPGAVKVAWKADGSPVNTGVETTTPSKQSNNKYAASSYLSLTPEQWKSHRSYSCQVTHEGSTVEKTVAPAECSGGGGSEGKSSGSGSESKSTEGKSSGSGSESKSTGGGGSEVQLVESGGGLVQPGGSLKLSCAASGFTFNTYAMNWVRQAPGKGLEWVARIRSKYNNYATYYADSVKDRFTISRDDSKNTAYLQMNNLKTEDTAVYYCVRHGNFGNSYVSWFAYWGQGTLVTVSAASTKGPSVFPLAPSSKSTSGGTAALGCLVKDYFPEPVTVSWNSGALTSGVHTFPAVLQSSGLYSLSSVVTVPSSSLGTQTYICNVNHKPSNTKVDKRVEPKSCDKTHTCPPCPAPEAAGGPSVFLFPPKPKDTLMISRTPEVTCVVVDVSHEDPEVKFNWYVDGVEVHNAKTKPREEQYNSTYRVVSVLTVLHQDWLNGKEYKCKVSNKALPAPIEKTISKAKGQPREPQVYTLPPSREEMTKNQVSLSCAVKGFYPSDIAVEWESNGQPENNYKTTPPVLDSDGSFFLVSKLTVDKSRWQQGNVFSCSVMHEALHNRFTQKSLSLSPG
notes: scFab-Fc heterodimer, one B7H6 chain and one CD3 chain
B2: B7H6#14/CD3#3 (bispecific antibody, human IgG1, kappa, L234A L235A)
chain 1: B1 chain 1 with A57G, T84A, Y87F, R290K, M300I, S306N, R319K
chain 2: not shown
notes: scFab-Fc heterodimer
B3: B7H6#23/CD3#2 (bispecific antibody, human IgG1, kappa, L234A L235A)
chain 1: B1 chain 1 with T84A, Y87F, N283S, R290K, M300I, D308E, R319K
chain 2: not shown
notes: scFab-Fc heterodimer
B4: B7H6#14/CD3#6 (bispecific antibody, human IgG1, kappa, L234A L235A)
chain 1: B1 chain 1 with A57G, T84A, Y87F, R290K, M300I, S306N, R319K
chain 2: not shown
notes: scFab-Fc heterodimer
B5: B7H6#14/CD3#5 (bispecific antibody, human IgG1, kappa, L234A L235A)
chain 1: B1 chain 1 with A57G, T84A, Y87F, R290K, M300I, S306N, R319K
chain 2: not shown
notes: scFab-Fc heterodimer
B6: B7H6#11/CD3#1 (bispecific antibody)
chain 1: not shown
chain 2: B1 chain 2
notes: as for B1

biological target: T1, Human B7H1 (human, UniProt Q9NZQ7 20-239); test: SPR, binder captured on Protein A/G, HuB7H1 analyte
T1 construct: also called HuB7H1; huB7-H1
T1 sequence (Q9NZQ7 other isoform, or with tags, fused parts or gaps limits assumed): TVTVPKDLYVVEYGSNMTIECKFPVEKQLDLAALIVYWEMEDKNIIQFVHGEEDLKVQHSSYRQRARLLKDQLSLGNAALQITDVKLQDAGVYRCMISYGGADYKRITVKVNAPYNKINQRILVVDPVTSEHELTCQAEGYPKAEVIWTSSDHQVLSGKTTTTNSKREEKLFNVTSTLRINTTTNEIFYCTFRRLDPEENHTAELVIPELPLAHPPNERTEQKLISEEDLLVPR
Procedure, shortened: (§1)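 B7H6/CD3 binder captured (~700 RU) on a Protein A/G CM5 surface in HBS-EP+. Human or cyno B7H6 injected at 0–100 nM and human B7H1 at 0 nM and 1 μM, 300 s association and 1200 s dissociation. Data double-referenced against the reference flow cell and blank.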

Question: Does B1 bind?
Answer: no binding (tested: 1 µM)

Question: Does B2 bind?
Answer: no binding (tested: 1 µM)

Question: Does B3 bind?
Answer: no binding (tested: 1 µM)

Question: Does B4 bind?
Answer: no binding (tested: 1 µM)

Question: Does B5 bind?
Answer: no binding (tested: 1 µM)

biological target: T2, human B7H6 on HCT-15 cells (human, UniProt Q68D85 25-454); test: cell-based or functional assay
T2 sequence (looked up): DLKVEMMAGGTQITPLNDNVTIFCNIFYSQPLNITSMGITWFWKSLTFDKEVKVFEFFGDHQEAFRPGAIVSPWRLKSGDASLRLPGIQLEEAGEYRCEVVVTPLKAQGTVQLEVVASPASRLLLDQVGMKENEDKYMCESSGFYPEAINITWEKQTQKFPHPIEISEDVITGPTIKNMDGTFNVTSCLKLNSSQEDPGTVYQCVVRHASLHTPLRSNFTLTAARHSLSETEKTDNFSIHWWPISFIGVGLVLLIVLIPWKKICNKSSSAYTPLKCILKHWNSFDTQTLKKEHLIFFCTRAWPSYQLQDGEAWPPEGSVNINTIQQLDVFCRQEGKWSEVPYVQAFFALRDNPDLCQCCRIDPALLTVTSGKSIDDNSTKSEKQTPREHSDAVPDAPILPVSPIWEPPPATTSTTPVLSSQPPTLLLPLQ

Question: With B6 as the binder, how does the “EC50 [nM], 72 hour cytotoxicity assay, non-stimulated T-cells (Donor #1) as effector cells, HCT-15 cells as target cells” value read?
Answer: 0.77 nM

biological target: T3, Cyno CD3 E+G HuFc-6xHis (cynomolgus monkey); test: SPR, CD3E+G-hFc immobilized, binder analyte
T3 construct: also called CyCD3E+G-hFc; cyCD3
T3 sequence (chain, as listed by the source limits assumed): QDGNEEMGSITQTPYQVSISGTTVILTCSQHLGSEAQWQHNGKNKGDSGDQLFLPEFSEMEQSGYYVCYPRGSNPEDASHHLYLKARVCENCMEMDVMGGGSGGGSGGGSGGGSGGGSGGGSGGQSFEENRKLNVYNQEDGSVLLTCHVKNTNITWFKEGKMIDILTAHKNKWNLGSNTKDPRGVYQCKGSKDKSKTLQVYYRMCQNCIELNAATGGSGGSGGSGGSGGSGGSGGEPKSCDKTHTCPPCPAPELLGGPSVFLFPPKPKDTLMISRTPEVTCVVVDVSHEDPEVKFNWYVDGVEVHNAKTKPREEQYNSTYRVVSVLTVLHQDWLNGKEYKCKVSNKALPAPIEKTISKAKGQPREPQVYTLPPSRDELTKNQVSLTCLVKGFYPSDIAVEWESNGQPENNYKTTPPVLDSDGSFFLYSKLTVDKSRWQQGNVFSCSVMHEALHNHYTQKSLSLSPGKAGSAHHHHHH
Procedure, shortened: (§2)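 On a ProteOn XPR36, human and cyno CD3E+G-hFc were amine-coupled to a GLM chip at 0.4, 0.2 and 0.1 μg/mL in 10 mM acetate pH 4.5. B7H6/CD3 binding protein (0–100 nM) flowed in HBS-EP+ at 30 μL/min, with 300 s association and 600 s dissociation. Interspot and blank responses were subtracted.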

Question: How did the Kd turn out when B2 was run?
Answer: 7.1 nM

Question: How did the Kd turn out when B3 was run?
Answer: 10 nM

Question: Which Kd does the source give for B4 here?
Answer: 5.7 nM

Question: Which Kd does the source give for B5 here?
Answer: 5.2 nM

biological target: T4, Human CD3 E+G HuFc-6xHis (human); test: SPR, CD3E+G-hFc immobilized, binder analyte
T4 construct: also called HuCD3E+G-hFc; huCD3
T4 sequence (chain, as listed by the source limits assumed): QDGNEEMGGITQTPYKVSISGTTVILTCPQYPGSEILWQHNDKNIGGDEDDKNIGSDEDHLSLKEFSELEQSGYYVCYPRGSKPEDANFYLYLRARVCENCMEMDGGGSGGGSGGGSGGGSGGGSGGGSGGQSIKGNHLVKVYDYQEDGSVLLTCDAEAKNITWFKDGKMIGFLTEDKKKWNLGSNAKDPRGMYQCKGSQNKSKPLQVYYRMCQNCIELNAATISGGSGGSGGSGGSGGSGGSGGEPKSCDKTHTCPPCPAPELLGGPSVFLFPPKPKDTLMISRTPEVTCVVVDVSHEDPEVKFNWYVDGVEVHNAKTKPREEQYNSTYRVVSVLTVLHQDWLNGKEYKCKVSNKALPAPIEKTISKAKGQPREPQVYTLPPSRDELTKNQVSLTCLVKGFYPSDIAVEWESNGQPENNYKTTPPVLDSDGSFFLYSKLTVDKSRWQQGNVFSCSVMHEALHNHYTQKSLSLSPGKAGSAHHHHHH
Procedure, shortened: as §2

Question: How did the Kd turn out when B1 was run?
Answer: 7.8 nM

Question: With B2 as the binder, how does the Kd read?
Answer: 4.8 nM

Question: Which Kd does the source give for B3 here?
Answer: 10.4 nM

Question: B4 was tested. Which Kd did it give?
Answer: 4.1 nM

Question: For B5, which Kd is on record?
Answer: 4.3 nM

biological target: T5, trypsin inhibitor from Glycine max soybean (Glycine max (soybean)); test: SPR, 1 µM binder over immobilized trypsin inhibitor
T5 construct: unrelated negatively charged protein, amine-coupled to the chip
T5 sequence (P01070 25-205): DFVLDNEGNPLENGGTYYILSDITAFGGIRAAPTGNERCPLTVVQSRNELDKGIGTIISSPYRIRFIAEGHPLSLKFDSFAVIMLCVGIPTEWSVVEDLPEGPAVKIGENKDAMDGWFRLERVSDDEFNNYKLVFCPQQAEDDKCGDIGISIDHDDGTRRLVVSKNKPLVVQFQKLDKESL
Procedure, shortened: (§3)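 Non-specific binding tested with samples at 1 μM in HBS-EP at 25 °C, 5 μL/min, over lysozyme or trypsin inhibitor amine-coupled to CM5 chip (3000–5000 RU). Association 10 min, dissociation 15 min.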

Question: How did the “Non-specific binding (RU)” value turn out when B1 was run?
Answer: 43.5 RU

Question: B2 was tested. Which “Non-specific binding (RU)” value did it give?
Answer: 26.4 RU

Question: For B3, which “Non-specific binding (RU)” value is on record?
Answer: 47.8 RU

Question: With B4 as the binder, how does the “Non-specific binding (RU)” value read?
Answer: 34 RU

Question: B5 was tested. Which “Non-specific binding (RU)” value did it give?
Answer: 110 RU

Biological target: T6, Cyno B7H6-His (cynomolgus monkey)
T6 construct: also called CyB7H6; cyB7-H6
T6 chain: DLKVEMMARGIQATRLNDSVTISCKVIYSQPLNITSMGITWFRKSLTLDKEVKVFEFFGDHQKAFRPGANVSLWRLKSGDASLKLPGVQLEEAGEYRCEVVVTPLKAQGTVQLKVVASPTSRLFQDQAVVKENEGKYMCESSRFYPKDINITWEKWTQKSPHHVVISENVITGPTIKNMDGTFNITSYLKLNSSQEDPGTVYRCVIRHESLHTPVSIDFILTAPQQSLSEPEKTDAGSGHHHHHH
Test: SPR, binder captured on Protein A/G, B7H6 analyte
Procedure, shortened: as §1

Question: How did the Kd turn out when B1 was run?
Answer: 3.1 nM

Question: B2 was tested. Which Kd did it give?
Answer: 1.1 nM

Question: B3 was tested. Which Kd did it give?
Answer: 2 nM

Question: B4 was tested. Which Kd did it give?
Answer: 0.9 nM

Question: B5 was tested. Which Kd did it give?
Answer: 1 nM

biological target: T7, chicken egg white lysozyme (chicken, UniProt P00698 19-147); test: SPR, 1 µM binder over immobilized lysozyme
T7 construct: unrelated positively charged protein, amine-coupled to the chip; also called Lysozyme (positive)
T7 sequence (P00698 19-147): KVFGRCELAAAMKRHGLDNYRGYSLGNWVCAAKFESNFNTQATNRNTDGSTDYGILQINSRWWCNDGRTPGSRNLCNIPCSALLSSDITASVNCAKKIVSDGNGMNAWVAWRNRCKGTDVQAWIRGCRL
Procedure, shortened: as §3

Question: B1 was tested. Which “Non-specific binding (RU)” value did it give?
Answer: 7.9 RU

Question: With B2 as the binder, how does the “Non-specific binding (RU)” value read?
Answer: 12.4 RU

Question: With B3 as the binder, how does the “Non-specific binding (RU)” value read?
Answer: 37.8 RU

Question: For B4, which “Non-specific binding (RU)” value is on record?
Answer: 15.7 RU

Question: How did the “Non-specific binding (RU)” value turn out when B5 was run?
Answer: 16.2 RU

biological target: T8, Fc-His-tagged human B7H6 ECD (human); test: ELISA, plate coated with Fc-His-tagged human B7H6 ECD, anti-human IgG F(ab')2-peroxidase, TMB
T8 construct: also called huB7H6-ECD-Fc-His; recombinant human B7H6 ECD
Description: To assess binding of B7H6/CD3 binding proteins to recombinant human Fc-His-tagged B7H6 ECD and human Fc-His-tagged Ala-mutated B7H6 extracellular proteins as described in Example 3, MediSorp™ plates (Nunc, 467320) were coated with […] recombinant proteins overnight at 4° C. The next day, plates were blocked with 0.5% bovine serum albumin (BSA) in phosphate buffered saline (PBS) for 1 hour at room temperature (RT). Subsequently plates were washed with […] containing 0.05% TWEEN®20 viscous liquid and B7H6/CD3 binding proteins were incubated at concentrations ranging from 0.00001 to 10 μg/ml. After an additional washing step, bound B7H6/CD3 binding proteins were detected by a peroxidase conjugated goat anti-human IgG F(ab′)₂-specific secondary antibody (Jackson Immunoresearch) and visualized by TMB substrate solution (Bender Med Systems).

Question: How did the “EC50 (read off the curve)” value turn out when B6 was run?
Answer: ~0.05 µg/mL

Biological target: T6, Cyno B7H6-His
Test: ratio of SPR KDs cyno/human

Question: For B1, which “cy/hu B7-H6” value is on record?
Answer: 1.7

Question: With B2 as the binder, how does the “cy/hu B7-H6” value read?
Answer: 0.9

Question: With B3 as the binder, how does the “cy/hu B7-H6” value read?
Answer: 1.1

Question: With B4 as the binder, how does the “cy/hu B7-H6” value read?
Answer: 2.1

Question: For B5, which “cy/hu B7-H6” value is on record?
Answer: 1.1

biological target: T3, Cyno CD3 E+G HuFc-6xHis; test: ratio of SPR KDs cyno/human

Question: Which “cy/hu CD3” value does the source give for B2 here?
Answer: 1.5

Question: For B3, which “cy/hu CD3” value is on record?
Answer: 1

Question: How did the “cy/hu CD3” value turn out when B4 was run?
Answer: 1.4

Question: B5 was tested. Which “cy/hu CD3” value did it give?
Answer: 1.2
